The values that follow come from US20210221873A1 (Dana-Farber, published 2021).

Test in all cases: FACS on transfected 293T cells
The target in experiment [1] is full-length H7 HA of H7-FP34 (A/FPV/Rostock/34 (H7N1)) (influenza A virus A/FPV/Rostock/34 …, UniProt P03459 19-563).
Experiment [2] deals with full-length H8 HA of H8-ON68 (A/turkey/Ontario/6118/68) (influenza A virus …, UniProt P03456 16-565).
Experiment [3] concerns the target full-length H14 HA of H14-CU82 (A/mallard/Gurjev/263/82 (H14N5)) (influenza A virus …, UniProt P26136 18-568).
In experiment [4] the target is full-length H13 HA of H13-MD77 (A/Gull/MD/704/77 (H13N6)) (influenza A virus A/Gull/MD/704/77 …, UniProt P13103 19-566).
full-length H13 HA of H13-MD77 (A/Gull/MD/704/77 (H13N6)), sequence (P13103 19-566): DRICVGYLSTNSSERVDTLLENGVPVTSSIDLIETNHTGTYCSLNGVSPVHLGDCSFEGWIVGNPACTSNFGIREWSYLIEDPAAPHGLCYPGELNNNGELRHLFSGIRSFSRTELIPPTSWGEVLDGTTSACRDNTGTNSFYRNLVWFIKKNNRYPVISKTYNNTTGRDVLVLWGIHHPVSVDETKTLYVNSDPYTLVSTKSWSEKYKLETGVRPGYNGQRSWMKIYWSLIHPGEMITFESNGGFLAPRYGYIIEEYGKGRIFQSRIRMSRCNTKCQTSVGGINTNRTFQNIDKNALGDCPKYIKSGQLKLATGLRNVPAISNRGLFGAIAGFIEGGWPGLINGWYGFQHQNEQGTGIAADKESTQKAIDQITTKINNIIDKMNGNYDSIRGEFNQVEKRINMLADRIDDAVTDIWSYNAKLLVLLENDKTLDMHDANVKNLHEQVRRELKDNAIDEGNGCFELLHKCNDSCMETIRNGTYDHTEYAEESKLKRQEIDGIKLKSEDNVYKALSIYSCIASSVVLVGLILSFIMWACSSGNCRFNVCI
The target in experiment [5] is full-length H2 HA of H2-JP57 (A/Japan/305/57 (H2N2)) (influenza A virus A/Japan/305/57 (H2N2), UniProt P03451 16-562).
Experiment [6] has as its target full-length H1 HA of H1-SC1918 (A/South Carolina/1/1918 (H1N1)) (influenza A virus A/South …, UniProt Q9WFX3 18-566).
Experiment [7] deals with full-length H1 HA of H1-PR34 (A/Puerto Rico/8/34 (H1N1)) (influenza A virus A/Puerto Rico/8/34 …, UniProt P03452 18-565).
full-length H1 HA of H1-PR34 (A/Puerto Rico/8/34 (H1N1)), sequence (P03452 18-565): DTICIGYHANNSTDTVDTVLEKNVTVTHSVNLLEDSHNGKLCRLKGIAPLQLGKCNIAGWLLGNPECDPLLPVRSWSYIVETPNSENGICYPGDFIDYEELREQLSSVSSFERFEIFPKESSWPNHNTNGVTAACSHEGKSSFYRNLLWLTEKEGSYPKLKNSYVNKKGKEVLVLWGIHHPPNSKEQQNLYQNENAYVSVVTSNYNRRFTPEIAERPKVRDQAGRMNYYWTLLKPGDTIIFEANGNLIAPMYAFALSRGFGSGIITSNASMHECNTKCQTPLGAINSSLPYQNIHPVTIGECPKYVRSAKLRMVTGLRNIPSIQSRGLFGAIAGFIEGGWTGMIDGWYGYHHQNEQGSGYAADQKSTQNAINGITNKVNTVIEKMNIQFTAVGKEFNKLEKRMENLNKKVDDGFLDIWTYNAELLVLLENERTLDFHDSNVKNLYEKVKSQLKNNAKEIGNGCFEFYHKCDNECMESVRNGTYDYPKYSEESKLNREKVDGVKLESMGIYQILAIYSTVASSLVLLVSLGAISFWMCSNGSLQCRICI

full-length H14 HA of H14-CU82 (A/mallard/Gurjev/263/82 (H14N5)), sequence (P26136 18-568 limits assumed): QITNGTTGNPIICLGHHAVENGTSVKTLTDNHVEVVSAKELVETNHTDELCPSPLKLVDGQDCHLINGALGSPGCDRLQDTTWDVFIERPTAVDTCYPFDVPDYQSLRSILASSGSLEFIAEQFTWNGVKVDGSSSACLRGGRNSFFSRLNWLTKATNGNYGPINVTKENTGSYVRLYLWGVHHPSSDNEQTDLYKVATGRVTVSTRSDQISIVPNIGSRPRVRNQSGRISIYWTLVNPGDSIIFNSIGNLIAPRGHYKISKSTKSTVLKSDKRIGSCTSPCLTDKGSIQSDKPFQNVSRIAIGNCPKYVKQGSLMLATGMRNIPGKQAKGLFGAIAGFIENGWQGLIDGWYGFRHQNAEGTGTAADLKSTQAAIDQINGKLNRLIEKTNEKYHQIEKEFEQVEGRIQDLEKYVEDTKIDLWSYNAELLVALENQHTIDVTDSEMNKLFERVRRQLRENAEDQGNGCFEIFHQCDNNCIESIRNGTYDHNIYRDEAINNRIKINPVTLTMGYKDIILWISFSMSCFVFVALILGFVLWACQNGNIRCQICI
full-length H8 HA of H8-ON68 (A/turkey/Ontario/6118/68), sequence (P03456 16-565 limits assumed): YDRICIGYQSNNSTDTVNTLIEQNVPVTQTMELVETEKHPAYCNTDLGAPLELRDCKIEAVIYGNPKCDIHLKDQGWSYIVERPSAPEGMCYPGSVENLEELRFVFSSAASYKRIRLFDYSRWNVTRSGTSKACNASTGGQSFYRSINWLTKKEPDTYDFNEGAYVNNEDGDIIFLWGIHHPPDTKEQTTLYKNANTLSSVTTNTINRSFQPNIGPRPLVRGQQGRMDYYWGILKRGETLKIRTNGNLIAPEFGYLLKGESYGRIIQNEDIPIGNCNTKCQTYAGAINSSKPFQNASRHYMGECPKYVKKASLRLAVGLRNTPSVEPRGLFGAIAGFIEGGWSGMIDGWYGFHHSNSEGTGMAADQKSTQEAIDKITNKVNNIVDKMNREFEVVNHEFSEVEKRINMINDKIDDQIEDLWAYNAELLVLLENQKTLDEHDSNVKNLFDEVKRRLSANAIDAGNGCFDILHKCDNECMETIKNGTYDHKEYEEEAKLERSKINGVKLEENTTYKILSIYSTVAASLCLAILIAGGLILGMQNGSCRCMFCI
full-length H7 HA of H7-FP34 (A/FPV/Rostock/34 (H7N1)), sequence (P03459 19-563): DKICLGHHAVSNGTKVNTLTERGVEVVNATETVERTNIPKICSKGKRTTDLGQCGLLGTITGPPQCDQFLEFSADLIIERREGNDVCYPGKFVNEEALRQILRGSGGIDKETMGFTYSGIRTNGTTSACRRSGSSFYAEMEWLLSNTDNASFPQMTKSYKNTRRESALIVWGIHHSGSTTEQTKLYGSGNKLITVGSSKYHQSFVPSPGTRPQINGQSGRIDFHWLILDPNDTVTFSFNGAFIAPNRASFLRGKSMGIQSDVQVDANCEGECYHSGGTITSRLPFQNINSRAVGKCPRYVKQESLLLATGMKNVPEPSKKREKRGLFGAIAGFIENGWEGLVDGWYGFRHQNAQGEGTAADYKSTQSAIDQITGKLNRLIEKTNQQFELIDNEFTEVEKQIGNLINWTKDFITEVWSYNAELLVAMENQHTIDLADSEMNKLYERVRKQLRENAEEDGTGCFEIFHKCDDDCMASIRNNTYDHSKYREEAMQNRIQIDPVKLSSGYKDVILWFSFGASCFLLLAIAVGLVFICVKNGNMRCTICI
full-length H1 HA of H1-SC1918 (A/South Carolina/1/1918 (H1N1)), sequence (Q9WFX3 18-566): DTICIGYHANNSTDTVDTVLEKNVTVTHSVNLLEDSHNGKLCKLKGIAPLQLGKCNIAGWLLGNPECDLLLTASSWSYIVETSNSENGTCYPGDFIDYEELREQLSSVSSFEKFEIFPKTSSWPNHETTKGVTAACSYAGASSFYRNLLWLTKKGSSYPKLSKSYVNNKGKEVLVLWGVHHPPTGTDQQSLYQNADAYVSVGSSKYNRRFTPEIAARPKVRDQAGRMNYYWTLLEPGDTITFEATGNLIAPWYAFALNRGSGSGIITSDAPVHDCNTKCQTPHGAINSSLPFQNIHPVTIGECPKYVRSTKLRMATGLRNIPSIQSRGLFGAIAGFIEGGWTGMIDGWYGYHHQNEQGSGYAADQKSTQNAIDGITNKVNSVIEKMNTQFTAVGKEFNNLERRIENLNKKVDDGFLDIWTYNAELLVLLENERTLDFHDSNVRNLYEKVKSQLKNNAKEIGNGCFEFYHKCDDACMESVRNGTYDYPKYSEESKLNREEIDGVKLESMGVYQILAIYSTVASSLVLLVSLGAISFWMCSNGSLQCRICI

B1: F10-IgG1 (antibody, V domains shown)
VH: QVQLVQSGAEVKKPGSSVKVSCTSSEVTFSSFAISWVRQAPGQGLEWLGGISPMFGTPNYAQKFQGRVTITADQSTRTAYMDLRSLRSEDTAVYYCARSPSYICSGGTCVFDHWGQGTLVTVSS
VL: QPGLTQPPSVSKGLRQTATLTCTGNSNNVGNQGAAWLQQHQGHPPKLLSYRNNDRPSGISERFSASRSGNTASLTITGLQPEDEADYYCSTWDSSLSAVVFGGGTKLTVL
On to B1, for which the binding result is listed as “no binding (tested: 10 µg/mL)” in experiment [1]; “binds” in experiment [2]; “no binding” in experiment [3]; “binds” in experiment [4]; “binds” in experiment [5]; “binds” in experiment [6]. The binding result in experiment [7] is “binds”.

B2: A66-IgG1 (antibody, V domains shown)
VH: QVQLVQSGAEVKKPGSSVKVSCKASGGPFSMTAFTWLRQAPGQGLEWMGGISPIFRTPKYAQKFQGRVTITADESTNTANMELTSLKSEDTAVYYCARTLSSYQPNNDAFAIWGQGTMVTVSS
VL: EIVLTQSPATLSLSPGERATLSCRASQSVSSYLAWYQQKPGQAPRLLIYDASNRATGIPARFSGSGSGTDFTLTISRLEPEDFAVYFCQQYGSSPQFGQGTRLEIK
For B2, the binding result is reported as “no binding (tested: 10 µg/mL)” in experiment [1]; “binds” in experiment [2]; “no binding” in experiment [3]; “binds” in experiment [4]; “binds” in experiment [5]; “binds” in experiment [6]. Moreover, the binding result in experiment [7] was “binds”.

B3: D8-IgG1 (antibody, V domains shown)
VH: QVQLVQSGAEVKKPGSSVKVSCKASGGTFSAYAFTWVRQAPGQGLEWMGGITGMFGTANYAQKFQGRVTITADELTSTAYMELSSLTSEDTALYYCARGLYYYESSLDYWGQGTLVTVSS
VL: QSVLTQPPSASGSPGQSVTISCTGTSSDVGGYNSVSWYQQHPGKAPKLMIYEVTKRPSGVPDRFSASKSGNTASLTVSGLQAEDEADYFCCSYAGHSAYVFGTGTKVTVL
B3: the binding result in experiment [1] was “no binding (tested: 10 µg/mL)”; in experiment [2], “binds”; in experiment [3], “no binding”; in experiment [4] it was “binds”; in experiment [5], “binds”; in experiment [6], “binds”. In experiment [7], the binding result is listed as “binds”.
